Results taken from the supplement of paper PMC10567573.
± gives the standard deviation.

Assay: protein stability index of a GFP-peptide fusion (GPS, HEK-293T) (PSI 1-6); higher = more stable
[1] = treatment: DMSO, c terminus: a fixed tail appended
[2] = treatment: MLN4924 1 uM, 8 h, c terminus: a fixed tail appended
[3] = treatment: DMSO, c terminus: native
[4] = treatment: MLN4924 1 uM, 8 h, c terminus: native
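Note: 24-mer peptide tiles fused after GFP, lentivirally expressed, FACS-sorted into six equal bins by GFP/DsRed ratio, decoded by Illumina sequencing, PSI is the read-weighted mean bin number.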

Sequence	protein stability index [1]	protein stability index [2]	protein stability index [3]	protein stability index [4]
SNQIPTEVRSKAEEVVSFVKKNVL [FUNDC2]	3.59 ± 0.32	3.73 ± 0.18	–	–
FAWPFYQPVDAIKLNLPDYHKIIK [BRD3]	2.24 ± 0.67	2.19 ± 0.25	–	–
GRSREELDELTGEVAGGGTPLLIA [FEM1A]	4.6 ± 0.26	4.77 ± 0.26	–	–
SAPLQGAVPPTSSVPPVAGAPSVG [SNAP91]	4.91 ± 0.19	4.99 ± 0.081	–	–
SSASSEQGLLGRSPPTRPVPGHRS [SPRY1]	4.82 ± 0.27	4.8 ± 0.12	–	–
VIRWIAHDTEIRKVHMKDVMSALW [GAN]	2.38 ± 0.63	2.08 ± 0.2	–	–
ESSTRLLLEKNASVNEVDFEGRTP [RIPK4]	4.83 ± 0.79	–	–	–
SNPLAREIFRRHFRQLCYQETPGP [ZSCAN9]	2.28 ± 0.039	2.52 ± 0.097	–	–
ETRAEDPPWFEGLESRFQSKSGYL [DFFB]	3.56 ± 0.063	3.63 ± 0.069	–	–
QEKDQEMERLRELQRASILDMRRD [FBF1]	4.86 ± 0.22	4.79 ± 0.24	–	–
NELDSGFRLLNLKNDSLRKRYDGL [TSN]	3.21 ± 0.28	3.43 ± 0.36	–	–
DVIQALDLSVPLMDVGETAMVTAD [FKBP8]	3.41 ± 0.29	3.53 ± 0.19	–	–
QLLYSPIENIQRVAAGVLCELAQD [CTNNB1]	2.29 ± 0.24	2.27 ± 0.27	–	–
KAAALPPFPLGASAQNGLASSLPA [PLAGL1]	3.75 ± 0.21	3.82 ± 0.21	–	–
GSAAGHVLVKDNGLGCKDLDLIFH [TENT5C]	2.59 ± 0.32	2.84 ± 0.44	–	–
LPRGATAAVLAPDSSNASSEPSS [SEPHS2]	–	–	5.31 ± 0.21	5.53 ± 0.17
NEIFTQLYRTLFSVINNGHNQKVH [PDS5B]	2.24 ± 0.47	2.47 ± 0.56	–	–
MVPISKQPKEKIQAIIESCSRQFP [NOL4L]	3.34 ± 0.11	3.38 ± 0.47	–	–
AGHRRPAGGIRESKESSKEKKLTV [C22orf31]	5.05 ± 0.41	4.86 ± 0.38	–	–
EKLKVAPPNADLEQGFQEGVPNAS [MFF]	5.28 ± 0.17	5.22 ± 0.17	–	–
PALEEAPDSHQKRPQHSHSNKKRP [ELOA2]	5.52 ± 0.25	5.33 ± 0.46	–	–
PPRGPQQLSSFGSVDWLSQSSCSG [VENTX]	3.77 ± 0.56	3.96 ± 0.34	–	–
DKNVQVVELPIVDSLHPRPPYLPL [FUT8]	3.2 ± 0.29	3.35 ± 0.28	–	–

Sequence	protein stability index [1]	protein stability index [2]	protein stability index [3]	protein stability index [4]
CADVILVLQERVRIFAHKIYLSTS [RHOBTB2]	3.01 ± 0.25	3.02 ± 0.49	–	–
RLRPLTLSTPKPLVDFCNKPILLH [GMPPB]	2.31 ± 0.14	2.46 ± 0.51	–	–
YGSDQQHHLGSGSGAGGTGGPAGQ [MYOZ1]	4.93 ± 0.23	4.77 ± 0.28	–	–
LAQTRAEGQRQAQEYEALLNIKVK [KRT18]	4.26 ± 0.38	4.17 ± 0.15	–	–
FPSAGQAQAAVQGPVGTDFKPLNS [ZNF207]	3.67 ± 0.45	4.16 ± 0.4	–	–
SVETLDHDSVVEMIRKGGDQTSLL [PDZK1]	4.44 ± 0.42	4.55 ± 0.28	–	–
PSLEELGFDTDGLSSAVWPGGETE [CRY1]	5.33 ± 0.28	5.29 ± 0.16	–	–
PRAKSKVWKYFGFDTNAEGCILQW [ZBED1]	2.3 ± 0.59	2.38 ± 0.081	–	–
ALNWTDIPVAMEHQPPYIIAVLPR [VPS39]	2.23 ± 0.38	2.25 ± 0.29	–	–
LLAWRCTKLSLLAIHGYTVWAHNL [FBXO33]	3.15 ± 0.21	3.13 ± 0.34	–	–
PEFIKVRENLRRIATLTSEEREL [FAM107A]	–	–	2.66 ± 0.5	3.35 ± 0.55
AEEPNAAVPDEIPPLEGDEDASRM [HSP90AB1]	5.74 ± 0.15	5.65 ± 0.15	–	–
DLYALKSVKIPVRNHGILMETHKE [LYSMD4]	3.02 ± 0.14	3.25 ± 0.12	–	–
SATLVGFTVGSVLGQILVSVAGWS [SLC19A2]	3.13 ± 0.21	3.23 ± 0.89	–	–
GHDKCVSWMCTRSGNMLGRHFFTS [WDFY1]	2.35 ± 0.36	2.35 ± 0.18	–	–
PGGETEALTRLERHLERKAWVANF [CRY1]	3.04 ± 0.36	3.07 ± 0.39	–	–
SPDVLQMLKIHRSDPQLIVQLRFC [TRADD]	2.73 ± 0.58	2.56 ± 0.6	–	–
NNILISAVLPTAFRVAKKRAPKVL [GDAP1]	2.34 ± 0.24	2.48 ± 0.34	–	–
EEWGQLDPTQRILYRDVMLETFGH [ZNF8]	2.91 ± 0.32	3.22 ± 0.38	–	–
SIVSGGYGGSGDGLIPTGSGRHPS [ARFIP2]	3.96 ± 0.19	4.34 ± 0.42	–	–
SLTSGACRLDYRRPENRSFYLALY [TCF25]	2.41 ± 0.66	2.57 ± 0.88	–	–
AMCVGCGSQIHDQFILRVSPDLEW [ISL2]	2.18 ± 0.36	2.16 ± 0.21	–	–
RLCFFPFVENGHSESSGQTHLEGD [CFHR2]	4.01 ± 0.099	4.37 ± 0.15	–	–

Sequence	protein stability index [1]	protein stability index [2]	protein stability index [3]	protein stability index [4]
WHPKPYCQALPYGPGYWMCCHRSQ [FBXO34]	2.32 ± 0.37	2.08 ± 0.14	–	–
IKGLQRKERLKPAHIHLQQLTCFS [KRT34]	2.3 ± 0.39	2.36 ± 0.37	–	–
SLLQSAWMEILILGVVYRSLSFED [ESRRG]	3.09 ± 0.26	3.07 ± 0.22	–	–
SDSGDGVYAGRPLSVIQMVAFLEQ [FBXO34]	2.92 ± 0.15	3.02 ± 0.34	–	–
NVNRLNESFRDLQLRLLQAPLQAD [SCARA5]	3.3 ± 0.38	3.33 ± 0.34	–	–
GQKLVVPGLLGSMALSNHYRSEDL [FBXO3]	2.92 ± 0.21	3.17 ± 0.35	–	–
LLYKDGFSTILHLLLGSPHPAATA [LPCAT4]	2.71 ± 0.28	2.57 ± 0.54	–	–
EPVLLFGKIRRGAYALPAGLSAPA [TRIB3]	2.76 ± 0.19	3.01 ± 0.26	–	–
ALKKRSGKKDKHSQSPRAAGPREG [PBXIP1]	4.64 ± 0.14	4.83 ± 0.34	–	–
EFPESRKPISTKSQFLKHQQTHNI [ZNF649]	3.72 ± 0.47	3.57 ± 0.5	–	–
CYRSQDYGGRSVAPQNSFSAKLAP [KCNK9]	3.04 ± 0.092	3.19 ± 0.36	–	–
PEAEENKQIIRKHAQTFVALCATD [CCND1]	3.4 ± 0.73	3.81 ± 0.71	–	–
PVHLIDKLPLPVTIKSHLKSFSMA [RAB40C]	2.3 ± 0.081	2.34 ± 0.039	–	–
DSQRVASVSLDRCIKIWDVTSQAT [WDR88]	3.1 ± 0.22	3.12 ± 0.17	–	–
RIGEATKPDGTVEQIGHILVSWLP [NET1]	2.68 ± 0.29	2.56 ± 0.24	–	–
LKRSIPQVSPVRRAPSRRHGVRAK [CPN1]	4.58 ± 0.23	4.67 ± 0.17	–	–
MNGDSRAAVVTSPPPTTAPHKERY [ADD1]	4.89 ± 0.26	5.07 ± 0.22	–	–
TLSPHQYHSVHGVGMVPEWSDNS [TBX5]	–	–	4.01 ± 0.29	3.8 ± 0.14
RYVLKAGQTVTIWAANAGVTASPP [LMNB1]	3.62 ± 0.27	3.49 ± 0.24	–	–
LLFDMTTHPVTNTTEKQRLVKKLQ [GOLPH3L]	2.61 ± 0.26	2.83 ± 0.41	–	–
IGSSVMAASLVTMGIVNLNIHMNF [SLC2A12]	3.05 ± 0.24	3.13 ± 0.17	–	–
ELPSALESHEVPGTLSMGVPQIFK [ZNF24]	4.07 ± 0.12	4.11 ± 0.13	–	–
SDVVPEKERPLVIGHFNTASGVGF [MFSD9]	3.49 ± 0.26	3.52 ± 0.25	–	–

Sequence	protein stability index [1]	protein stability index [2]	protein stability index [3]	protein stability index [4]
AANLPALVLKIMSGTFAPISDRYS [NEK8]	3.08 ± 0.27	2.9 ± 0.56	–	–
TVASMMHRQETVECLKKFNARRKL [CAMK2B]	3.41 ± 0.4	3.74 ± 0.33	–	–
TVEQGCQILDSLSYMRNENVISEL [FBXO39]	3.5 ± 0.43	3.41 ± 0.42	–	–
EGNHPSARKLTAQRRASTVSSVTQ [NET1]	4.39 ± 0.25	4.69 ± 0.18	–	–
MWAHSMTVQDYQDLIDRGWRRSGK [ATE1]	3.11 ± 0.14	3.27 ± 0.24	–	–
SSNLLDLKNPFFRYTGTTPSPPPG [CARM1]	3.29 ± 0.29	3.42 ± 0.15	–	–
KEILRTLQDVFCWLPLATLIDEKV [PPEF2]	2.46 ± 0.25	3.03 ± 0.57	–	–
WFFLQSELKKLKNLEGNELQRHAD [FUT8]	2.56 ± 0.34	2.71 ± 0.41	–	–
LRVHLKMVDSFHRTSLQYGIMCLK [PPFIA4]	2.99 ± 0.047	2.9 ± 1	–	–
GTWVTFGGQITDEMAEQLMTLAYD [KCNAB2]	2.17 ± 0.37	2.28 ± 0.29	–	–
LTTFQDQLNRRGEFIQEIRRQLEA [OAS1]	3.3 ± 0.35	3.29 ± 0.27	–	–
AAVESVLHLGLPWRMLRPQLVNSS [PPEF2]	2.74 ± 0.81	2.46 ± 0.41	–	–
RGLPLLKTDFGSCLLQPPSCPNGM [DLC1]	2.69 ± 0.22	2.67 ± 0.41	–	–
PPNTRVLRVLPNLPCVVQEGAIVM [PYCR3]	2.22 ± 0.22	2.39 ± 0.25	–	–
PGPSPDVQLATLAQRVKEVLPHVP [AUP1]	4.14 ± 0.32	4.14 ± 0.13	–	–
NIPQMADTLFERATNSSWVVVFKA [SNAP91]	2.27 ± 0.65	2.3 ± 0.82	–	–
DSAQFTKALAIILHLLYLLEKVEC [FEM1A]	2.22 ± 0.33	2.11 ± 0.34	–	–
ERLKQEIERLTREVEATRRALIDR [DDIT3]	3.6 ± 0.24	3.56 ± 0.29	–	–
GNLSVLDVGCISVTVPSMLSRLLS [OR3A1]	2.09 ± 0.49	2.29 ± 0.18	–	–
EMSIHLSRPNGTSAMLLVTLGKVL [MED27]	2.41 ± 0.46	2.2 ± 0.26	–	–
